# From publication PMC5481773, “Structural insights into the function of ZRANB3 in replication stress response” (Nature Communications, 2017)
# Target: T1, His-tagged Proliferating Cell Nuclear Antigen (PCNA) (human, UniProt P12004 1-261)
# T1 construct: human PCNA, cloned into the NdeI and XhoI sites of pET28a for expression with an N-terminal His-tag; Used for ITC and for the peptide pull-downs; also called His-tagged PCNA; His-tagged recombinant PCNA; source: E. coli, from pET28a, purified (Ni-NTA, Q-sepharose, Superdex S-200); not shown: His tag, N-terminal, kept
# Experiment: ITC; 15 μM PCNA in the cell, peptides injected stepwise (20 injections of 2 μl), 25 °C, PBS with 1 mM β-mercaptoethanol, single set of independent binding sites model
# Settings: both partners purified
# T1 sequence (P12004 whole entry): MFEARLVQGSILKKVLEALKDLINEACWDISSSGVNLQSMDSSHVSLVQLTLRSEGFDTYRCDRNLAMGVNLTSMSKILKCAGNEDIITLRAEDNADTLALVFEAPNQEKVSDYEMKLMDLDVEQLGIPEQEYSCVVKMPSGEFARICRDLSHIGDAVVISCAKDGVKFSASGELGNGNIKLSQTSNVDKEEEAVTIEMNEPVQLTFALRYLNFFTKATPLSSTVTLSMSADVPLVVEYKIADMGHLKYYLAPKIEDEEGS
binder,measurement,value
SKHGSDITRFLVKK [ZRANB3 APIM motif synthetic peptide used for ITC],Kd,9.24 µM
same,stoichiometry N,1 peptide per PCNA monomer
EKEKQHDIRSFFVPQ [ZRANB3 PIP box synthetic peptide used for ITC],Kd,4.8 µM
same,stoichiometry N,1 peptide per PCNA monomer
